From publication PMC11972413

Legend:
Test in all cases: cryo-EM structure
[1] = biological target: adapter protein (bacteriophage φTE)
[2] = biological target: hub protein (bacteriophage φTE)
[3] = biological target: long-tail fiber (LTF) (bacteriophage φTE)
[4] = biological target: major capsid protein (MCP) (bacteriophage φTE)
[5] = biological target: minor capsid protein (DEC) (bacteriophage φTE)
[6] = biological target: portal protein (bacteriophage φTE)
[7] = biological target: puncture apparatus (PA) (bacteriophage φTE)
[8] = biological target: short-tail fiber (STF) (bacteriophage φTE)
[9] = biological target: tail sheath protein (bacteriophage φTE)
[10] = biological target: tail tube protein (bacteriophage φTE)
[11] = biological target: tape measure protein (TMP), six-stranded part along the tail (bacteriophage φTE)
[12] = biological target: tube initiator (TI) protein (bacteriophage φTE)

Substance: adapter protein (natural protein)
- stoichiometry N [1]: 12

Substance: hub protein (natural protein)
- stoichiometry N [2]: 3

Substance: long-tail fiber (LTF) (natural protein)
- stoichiometry N [3]: 3

Substance: major capsid protein (MCP) (natural protein)
- stoichiometry N [4]: 6

Substance: minor capsid protein (DEC) (natural protein)
- stoichiometry N [5]: 3

Substance: portal protein (natural protein)
- stoichiometry N [6]: 12

Substance: puncture apparatus (PA) (natural protein)
- stoichiometry N [2]: 1
- stoichiometry N [7]: 3

Substance: short-tail fiber (STF) (natural protein)
- stoichiometry N [8]: 3

Substance: tail sheath protein (natural protein)
- stoichiometry N [9]: 6

Substance: tail tube protein (natural protein)
- stoichiometry N [10]: 6

Substance: tape measure protein (TMP), six-stranded part along the tail (natural protein)
- stoichiometry N [11]: 6

Substance: tube initiator (TI) protein (natural protein)
- stoichiometry N [12]: 6
